This test concerns the target Arabinosyltransferase B (EmbB) from Mycobacterium smegmatis (Mycobacterium smegmatis) (UniProt Q50395). The experiment in a line: native MS; EmbB in 0.2 M ammonium acetate pH 6.8 with 0.01% C12E8 detergent; Q-Exactive HF Orbitrap UHMR, HCD 150 V, capillary 300 °C.

The term stoichiometry N denotes the number of molecules, sites or subunits per partner or assembly.

Turning to “Arabinosyltransferase B (EmbB) from Mycobacterium smegmatis (from UniProt Q50395 1-1082) (enzyme)”, the stoichiometry N was 2.

The values are drawn from PMC7341804.
